Measured values published in patent US20090081707A1 (published 2009).

Columns and labels:
[1] = target: trkC variant s5a immunoadhesin (trkC Val297 to Thr420 replaced with trkA Ser277 to Val402) (human); assay: competitive displacement of labelled NGF on immunoadhesin
[2] = target: trkC variant s5a immunoadhesin (trkC Val297 to Thr420 replaced with trkA Ser277 to Val402) (human); assay: saturation binding with 125I-NGF on immunoadhesin
[3] = target: T1, trkB-IgG immunoadhesin (chimera of human trkB extracellular domain with human IgG-1 Fc) (human, UniProt Q16620 32-422); assay: competitive displacement of labelled BDNF from trkB-IgG by unlabelled NT4/5
T1 construct: also called trkB full length receptor (as immunoadhesin); not shown: human IgG-1 heavy chain constant region from aspartic acid 216 of the hinge to residue 441 (Kabat numbering, 114 = first)
T1 sequence (Q16620 32-422 limits assumed, change not shown): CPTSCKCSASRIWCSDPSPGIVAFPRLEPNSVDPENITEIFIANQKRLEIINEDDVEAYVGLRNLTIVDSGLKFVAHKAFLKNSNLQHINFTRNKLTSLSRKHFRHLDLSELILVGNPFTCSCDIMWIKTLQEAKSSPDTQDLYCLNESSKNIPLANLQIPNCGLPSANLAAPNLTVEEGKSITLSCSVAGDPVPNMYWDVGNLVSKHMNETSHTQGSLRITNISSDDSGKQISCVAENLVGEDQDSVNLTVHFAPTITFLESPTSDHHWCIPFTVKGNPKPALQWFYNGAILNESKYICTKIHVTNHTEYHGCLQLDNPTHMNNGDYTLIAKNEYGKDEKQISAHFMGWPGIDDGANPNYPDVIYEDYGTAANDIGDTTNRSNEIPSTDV

[4] = target: T2, trkA-IgG immunoadhesin (chimera of human trkA extracellular domain with human IgG-1 Fc) (human, UniProt P04629 33-408); assay: competitive displacement of iodinated neurotrophin from trk-IgG
T2 construct: also called trkA-IgG chimera; native trkA; not shown: human IgG-1 heavy chain constant region from aspartic acid 216 of the hinge to residue 441 (Kabat numbering, 114 = first)
T2 sequence (P04629 other isoform, or with tags, fused parts or gaps mutant limits assumed): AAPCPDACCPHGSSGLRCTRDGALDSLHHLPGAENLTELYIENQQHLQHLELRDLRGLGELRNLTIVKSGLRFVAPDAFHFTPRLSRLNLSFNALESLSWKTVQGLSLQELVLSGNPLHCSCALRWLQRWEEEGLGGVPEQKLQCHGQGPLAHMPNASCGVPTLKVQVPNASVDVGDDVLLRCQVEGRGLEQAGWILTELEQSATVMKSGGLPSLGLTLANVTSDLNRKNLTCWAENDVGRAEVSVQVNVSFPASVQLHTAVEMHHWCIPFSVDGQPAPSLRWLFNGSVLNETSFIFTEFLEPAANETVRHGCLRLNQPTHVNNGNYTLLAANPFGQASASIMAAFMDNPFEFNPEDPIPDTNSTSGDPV

[5] = target: T1, trkB-IgG immunoadhesin (chimera of …); assay: competitive displacement of labelled BDNF from trkB-IgG by unlabelled BDNF
[6] = target: T3, trkC-IgG immunoadhesin (chimera of human trkC extracellular domain with human IgG-1 Fc) (human, UniProt Q16288 32-413); assay: competitive displacement of labelled BDNF on immunoadhesin
T3 construct: also called trkC wild-type; trkC full length receptor (as immunoadhesin); not shown: human IgG-1 heavy chain constant region from aspartic acid 216 of the hinge to residue 441 (Kabat numbering, 114 = first)

[7] = target: T1, trkB-IgG immunoadhesin (chimera of …); assay: competitive displacement of labelled BDNF from trkB-IgG by unlabelled NT3

trkC variant s5a immunoadhesin (trkC Val297 to Thr420 replaced with trkA Ser277 to Val402) (human), sequence (chain, as listed by the source mutant): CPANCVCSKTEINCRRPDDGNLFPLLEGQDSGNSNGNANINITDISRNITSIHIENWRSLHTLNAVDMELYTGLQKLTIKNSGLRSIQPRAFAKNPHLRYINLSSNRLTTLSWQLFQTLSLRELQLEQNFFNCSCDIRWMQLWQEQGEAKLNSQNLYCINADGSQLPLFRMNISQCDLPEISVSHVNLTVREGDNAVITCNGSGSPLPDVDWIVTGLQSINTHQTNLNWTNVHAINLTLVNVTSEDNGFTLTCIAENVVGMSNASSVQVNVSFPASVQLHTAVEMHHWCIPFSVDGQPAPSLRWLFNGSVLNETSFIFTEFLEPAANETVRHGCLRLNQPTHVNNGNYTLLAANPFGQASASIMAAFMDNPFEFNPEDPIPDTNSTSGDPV

With “nerve growth factor (NGF) (from UniProt P01138 122-241) (ligand)” the IC50 [1] was 0.0393 nM and the Kd [2] was 0.0386 nM.

B1: neurotrophin-4/5 (NT-4/5) (ligand)
chain: GVSETAPASRRGELAVCDAVSGWVTDRRTAVDLRGREVEVLGEVPAAGGSPLRQYFFETRCKADNAEEGGPGAGGGGCRGVDRRHWVSECKAKQSYVRALTADAQGRVGWRWIRIDTACVCTLLSRTGRA
notes: also called NT5
For B1, the IC50 [3] was 0.2 nM and the binding result [4] was “binds”.

B2: brain-derived neurotrophic factor (BDNF) (ligand)
chain: HSDPARRGELSVCDSISEWVTAADKKTAVDMSGGTVTVLEKVPVSKGQLKQYFYETKCNPMGYTKEGCRGIDKRHWNSQCRTTQSYVRALTMDSKKRIGWRFIRIDTSCVCTLTIKRGR
notes: also called NT-2
With B2 the IC50 [5] was 0.081 nM and the binding result [6] was “no binding”.

B3: neurotrophin-3 (NT-3) (ligand)
chain: YAEHKSHRGEYSVCDSESLWVTDKSSAIDIRGHQVTVLGEIKTGNSPVKQYFYETRCKEARPVKNGCRGIDDKHWNSQCKTSQTYVRALTSENNKLVGWRWIRIDTSCVCALSRKIGRT
Work on B3 yielded an IC50 [7] of 18 nM.
